{"source": "paper PMC3782296", "about": "(Journal of molecular biology, 2011)", "proteins": {"B1": {"name": "wild-type human Tom40A lacking amino acid residues 1 to 82 (hTom40AΔ1-82) (domain or fragment, UniProt O96008 83-361, looked up)", "chain": "FEECHRKCKELFPIQMEGVKLTVNKGLSNHFQVNHTVALSTIGESNYHFGVTYVGTKQLSPTEAFPVLVGDMDNSGSLNAQVIHQLGPGLRSKMAIQTQQSKFVNWQVDGEYRGSDFTAAVTLGNPDVLVGSGILVAHYLQSITPCLALGGELVYHRRPGEEGTVMSLAGKYTLNNWLATVTLGQAGMHATYYHKASDQLQVGVEFEASTRMQDTSVSFGYQLDLPKANLLFKGSVDSNWIVGATLEKKLPPLPLTLALGAFLNHRKNKFQCGFGLTIG"}}, "biological_target": "the molecule itself", "experiment": "cross-linking"}
{"protein": "B1", "values": [{"measurement": "stoichiometry N", "value": 2}]}
